These results are taken from article PMC13022455, “Oligomerization-dependent and synergistic regulation of Cdc42 GTPase cycling by a GEF and a GAP” (EMBO Reports, 2026).

For one data set, the target named is T1, Cdc24 (S. cerevisiae) (UniProt P11433).
T1 sequence: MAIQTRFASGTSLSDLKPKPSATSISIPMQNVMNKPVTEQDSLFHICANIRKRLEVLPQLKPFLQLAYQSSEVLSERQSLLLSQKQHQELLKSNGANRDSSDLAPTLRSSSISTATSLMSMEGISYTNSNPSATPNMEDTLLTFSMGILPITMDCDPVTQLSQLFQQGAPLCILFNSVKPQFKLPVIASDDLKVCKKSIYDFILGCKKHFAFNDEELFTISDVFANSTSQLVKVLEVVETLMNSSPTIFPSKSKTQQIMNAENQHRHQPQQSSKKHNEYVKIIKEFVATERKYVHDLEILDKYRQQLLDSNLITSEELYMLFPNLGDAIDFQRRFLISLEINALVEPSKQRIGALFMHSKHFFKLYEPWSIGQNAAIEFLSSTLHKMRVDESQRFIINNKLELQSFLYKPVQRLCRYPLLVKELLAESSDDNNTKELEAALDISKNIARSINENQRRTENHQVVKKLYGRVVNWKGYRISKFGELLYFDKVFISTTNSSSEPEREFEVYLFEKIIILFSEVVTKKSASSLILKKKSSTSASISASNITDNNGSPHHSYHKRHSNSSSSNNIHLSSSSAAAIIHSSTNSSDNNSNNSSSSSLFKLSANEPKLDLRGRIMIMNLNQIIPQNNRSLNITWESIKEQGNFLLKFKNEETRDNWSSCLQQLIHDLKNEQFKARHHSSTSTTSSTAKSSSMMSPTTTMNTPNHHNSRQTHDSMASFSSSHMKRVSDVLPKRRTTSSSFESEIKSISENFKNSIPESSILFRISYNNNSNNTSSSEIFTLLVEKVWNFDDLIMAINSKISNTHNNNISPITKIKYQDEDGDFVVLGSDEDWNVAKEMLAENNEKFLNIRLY

Data set [1] deals with the molecule itself. Put plainly: SEC-MALS; single purified proteins; Superdex 200 Increase 10/300 GL, SEC buffer (50 mM Tris-HCl pH 7.5, 100 mM NaCl, 10 mM MgCl2, 1 mM 2-mercaptoethanol) with 0.02% sodium azide, 0.5 mL/min; samples 5.7–7.1 µM; fractions analysed by SDS-PAGE and anti-His western blot. On the technique in general: SEC sorts molecules by how far they enter the pores of the column.

Data set [2] deals with Cdc24-DH3 (incl. mutation L339A, E340A) (S. cerevisiae) (UniProt P11433).

Where a chain is given by its changes, count along the chain named. Names may count otherwise.

B1: His-Rga2 (Rga2 tagged with an N-terminal 6His purification tag) (enzyme, S. cerevisiae, UniProt Q06407 1-1009, looked up)
chain: MSADPINDQSSLCVRCNKSIASSQVYELESKKWHDQCFTCYKCDKKLNADSDFLVLDIGTLICYDCSDKCTNCGDKIDDTAIILPSSNEAYCSNCFRCCRCSNRIKNLKYAKTKRGLCCMDCHEKLLRKKQLLLENQTKNSSKEDFPIKLPERSVKRPLSPTRINGKSDVSTNNTAISKNLVSSNEDQQLTPQVLVSQERDESSLNDNNDNDNSKDREETSSHARTVSIDDILNSTLEHDSNSIEEQSLVDNEDYINKMGEDVTYRLLKPQRANRDSIVVKDPRIPNSNSNANRFFSIYDKEETDKDDTDNKENEIIVNTPRNSTDKITSPLNSPMAVQMNEEVEPPHGLALTLSEATKENNKSSQGIQTSTSKSMNHVSPITRTDTVEMKTSTSSSTLRLSDNGSFSRPQTADNLLPHKKVAPSPNKKLSRSFSLKSKNFVHNLKSKTSEMLDPKHPHHSTSIQESDTHSGWGVSSTHTNIRKSKAKKNPVSRGQSDSTIYNTLPQHGNFTVPEFNHKKAQSSLGSISKKQNSNDTATNRRINGSFTSSSSGHHIAMFRTPPLESGPLFKRPSLSSESAHHRSSSLQTSRSTNALLEDDSTKVDATDESATSLEKDFYFTELTLRKLKLDVRELEGTKKKLLQDVENLRLAKERLLNDVDNLTREKDKQSASSRESLEQKENIATSITVKSPSSNSDRKGSISNASPKPRFWKIFSSAKDHQVGDLESQQRSPNSSSGGTTNIAQKEISSPKLIRVHDELPSPGKVPLSPSPKRLDYTPDGSHLYGSSLQARCAYEKSTVPIIIRCCIDRIEKDDIGLNMEGLYRKSGSQTLVEEIENEFAQNNSLHSDTLSPKLNALLNQDIHAVASVLKRYLRKLPDPVLSFSIYDALIDLVRNNQLIERLPLNNDKFLDSPQKVTIYEMVLKSLLEIFKILPVEHQEVLKVLAAHIGKVRRCSERNLMNLHNLSLVFAPSLIHDFDGEKDIVDMKERNYIVEFILGNYRDIFKQA
notes: plasmid pRV014; Found only as higher-order oligomers in SEC-MALS; also called Rga2(I); pRV014; source: E. coli BL21 DE3 pLysS, purified (HisTrap Excel, SEC Sephacryl S-300); not shown: His6, N-terminal, kept
On to B1, for which, in the data set with Cdc24 (S. cerevisiae), the interaction (synergy) rate k3,X1,X2 of Cdc42 GTPase cycling in Cdc42–Cdc24–Rga2 ((II)) mixtures (GTPase-Glo assay) is 51.7 µM^−4 h^−1 and the interaction (synergy) rate k3,X1,X2 of Cdc42 GTPase cycling in Cdc42–Cdc24–Rga2(I) mixtures (GTPase-Glo assay) amounted to 87 µM^−4 h^−1. Moreover, the binding result in data set [1] is listed as “binds”.

B2: Cdc24-DH3 (incl. mutation L339A, E340A) (enzyme)
chain: T1 sequence with L339A, E340A
With B2, in data set [2], the rate k3,Cdc24-DH3 of Cdc42 GTPase cycling (GTPase-Glo assay) was determined as 0.702 µM^−2 h^−1.

B3: GAP domain (aa 797–981 from Rga2) (domain or fragment, S. cerevisiae, UniProt Q06407 797-981, looked up)
chain: EKSTVPIIIRCCIDRIEKDDIGLNMEGLYRKSGSQTLVEEIENEFAQNNSLHSDTLSPKLNALLNQDIHAVASVLKRYLRKLPDPVLSFSIYDALIDLVRNNQLIERLPLNNDKFLDSPQKVTIYEMVLKSLLEIFKILPVEHQEVLKVLAAHIGKVRRCSERNLMNLHNLSLVFAPSLIHDFDG
notes: Rga2 GAP domain, S. cerevisiae, aa 797–981 (Smith et al, 2002); plasmid pRV138; also called Rga2's GAP domain; pRV138; source: E. coli BL21 DE3 pLysS, purified (HisTrap Excel, SEC Sephacryl S-300)
As to B3, the binding result in data set [1] is listed as “binds”.
